This note sets out measurements from PMC9232636, “Insights into the mechanism of action of the arbitrium communication system in SPbeta phages” (Nature Communications, 2022).

Positions count from the first letter of the chain named. Read-outs that look alike come from different tables or passages of the source. A value given as a limit tells only on which side of the number the result lay.

The target of series [1] is AimRKat (Bacillus phage Katmira (prophage of Bacillus subtilis KATMIRA1933)) (UniProt A0A7G5CHT1). The experiment in a line: BLI. The conditions noted are these: BLI: PBS (0.01% Tween, 0.1% BSA for hydration, baseline and dissociation), AimR 0.015-2.5 uM, temperature not stated; EMSA: 50 mM Tris pH 8, 250 mM NaCl, room ….
In series [2] the target is AimR from Katmira phage (AimR^Kat) (Katmira phage (resident phage of Bacillus subtilis subsp. KATMIRA1933)). The experiment in a line: thermal shift assay (ThermoFluor); 20 μM protein, 5× Sypro Orange, 0.5 μM peptide as printed; 20 mM Tris pH 8, 250 mM NaCl; 25 to 85 °C.
The target is the same in series [3]. The experiment in a line: ITC; Nano ITC Low Volume; protein 10 μM, peptide 50 μM; 25 mM Tris-HCl pH 8, 250 mM NaCl; 25 °C; biphasic thermograms fitted to a two-binding site model, one site per monomer of the AimR dimer.
The target in series [4] is AimR^Kat-N273A (Katmira phage (resident phage of Bacillus subtilis subsp. KATMIRA1933)). Described as above.
Series [5] addresses AimR from Katmira phage (AimR^Kat) (Katmira phage (resident phage of Bacillus subtilis subsp. KATMIRA1933)). The experiment in a line: SEC-MALS; apo AimR^Kat, 50 μl at 5 mg/ml on KW-803 (Shodex); 25 mM Tris pH 8, 250 mM NaCl.
For series [6] the target is unchanged. The experiment in a line: SEC-MALS; AimR^Kat with 1 mM AimP^Kat peptide in the injected sample and 1 μM peptide in the running buffer; 5 mg/ml, KW-803 (Shodex); 25 mM Tris pH 8, 250 mM NaCl.
Series [7] deals with T1, AimR from B. subtilis phage SPβ (AimR^SPβ) (Bacillus subtilis phage SPβ) (UniProt O64094).
T1 sequence: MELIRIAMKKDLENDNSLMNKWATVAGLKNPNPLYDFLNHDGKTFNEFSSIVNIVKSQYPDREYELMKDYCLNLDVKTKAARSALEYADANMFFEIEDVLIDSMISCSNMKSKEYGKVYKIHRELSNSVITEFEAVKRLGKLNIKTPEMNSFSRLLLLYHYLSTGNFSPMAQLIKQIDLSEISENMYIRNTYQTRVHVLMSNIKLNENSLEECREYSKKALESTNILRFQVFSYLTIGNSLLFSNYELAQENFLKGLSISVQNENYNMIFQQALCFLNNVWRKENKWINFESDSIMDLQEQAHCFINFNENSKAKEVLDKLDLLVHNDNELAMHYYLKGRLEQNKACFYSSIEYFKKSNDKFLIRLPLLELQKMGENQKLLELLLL

Series [8] has as its target AimR^Kat-N273A (Katmira phage (resident phage of Bacillus subtilis subsp. KATMIRA1933)). The experiment in a line: ITC; Nano ITC Low Volume; protein 10 μM, peptide 50 μM; 25 mM Tris-HCl pH 8, 250 mM NaCl; 25 °C; biphasic thermograms fitted to a two-binding site model, one site per monomer of the AimR dimer. This is another data set of the same source.
Series [9] deals with aimX-box^SPβ. The experiment in a line: Biolayer interferometry, AimR binding to aimX operator. On the set-up: species or system phage SPβ. The settings on record: BLI. As for the experimental part: (§1) The Binding affinity (KD), association (kon) and dissociation (koff) rate constants between AimRs and DNA were measured by biolayer interferometry (BLI) using the BLITz system (FortéBio). Biotinilated DNA probes (IDT) (Supplementary Table 3) were immobilised in Streptavidin biosensors (FortéBio) at 50 μg ml^−1. Biosensor hydration, baselines and dissociation analysis were carried out in phosphate buffer (PBS) supplemented with 0.01% tween and 0.1% BSA. Proteins were diluted in PBS. At least four different dilutions of AimR were used in a range between 0.015 and 2.5 μM. A blank using a chip without bounded DNA was used to subtract unspecific binding. Kinetic value calculations and data analysis were performed using BLItz Pro 1.2 software employing a 1:1 model to fit the data.

Series [10] deals with aimX-box^Kat. The description is as above. On the set-up: species or system Katmira phage. The settings on record: BLI, 1:1 model. As for the experimental part: as §1
Series [11] has as its target aimX-box^Phi. The series is described as above. On the set-up: species or system phage phi3T; key to kon / koff: NBD: not binding detected in the experimental conditions used. KD > 1 × 10^−6 M. The settings on record: BLI, 1:1 model. As for the experimental part:
as §1

Series [12] deals with AimR^SPβ. The experiment in a line: Thermal shift assay of AimR^SPβ with and without C-terminal His-tag. It counts as physicochemical, phage SPβ. The method, then:
The thermal shift assay was conducted in a 7500 Fast Real time PCR System (Applied Biosystems) as previously described. Briefly, samples of 20 μl buffer (20 mM Tris pH 8 and 250 mM NaCl) containing 5× Sypro Orange (Sigma-Aldrich) and 20 μM of protein were loaded in 96-well PCR plates. To calculate the Tm in the presence of the peptide, 0.5 μM of GMPRGA or GIVRGA peptide was added to the mixture. Samples were heated from 25 to 85 °C in steps of one degree. Fluorescent intensity was plotted versus temperature and integrated with GraphPad Prism software using a Boltzmann model to calculate melting temperatures.

Series [13] addresses T2, AimRSPb-I (untagged) (Bacillus phage SPbeta, UniProt O64094 1-386).
T2 sequence: T1 sequence
The experiment in a line: EMSA; BLI: PBS (0.01% Tween, 0.1% BSA for hydration, baseline and dissociation), AimR 0.015-2.5 uM, temperature not stated; EMSA: 50 mM Tris pH 8, 250 mM NaCl, room temperature 10 min, 0.5 uM peptide, gel at 4 C. The settings on record: protein: recombinant; tags: N-terminal His tag removed; chain copies: 2.

The target in series [14] is T2, AimRSPb-I (untagged). The experiment in a line: BLI; BLI: PBS (0.01% Tween, 0.1% BSA for hydration, baseline and dissociation), AimR 0.015-2.5 uM, temperature not stated; EMSA: 50 mM Tris pH 8, 250 mM NaCl, room temperature 10 min, 0.5 uM peptide, gel at 4 C. The conditions noted are these: protein: recombinant; tags: N-terminal His tag removed; chain copies: 2.
Series [15] concerns the target T3, AimRSPb-II (C-terminal His tag) (Bacillus phage SPbeta (B. subtilis 168 …, UniProt O64094 1-386)).
T3 sequence: T1 sequence
Described as above. The settings on record: protein: recombinant; chain copies: 2.

With “GGGAAAGTTCCAGAAATTCAAAAATCAAAAAATAAGAACATGGGG (double strand) [aimX-boxPhi BLI probe (DNA_Phi3T_b)]”, in [1], the Kd is greater than 1000 nM.

Turning to “AimP^Kat, active (mature) Katmira AimP peptide GIVRGA”, the increment of the melting temperature (Tm) in [2] was 20 °C. In addition, the KD1 (monomer 1, two-binding site model) in [3] came to 4.1 nM; in [4], 194 nM. The KD2 (monomer 2, two-binding site model) was determined as 5.7 nM in series [3] and 356 nM in series [4].

In turn, “GTTGATCACTTAAATATTAAGTTTTTATAACATCTAGTGATGGCC (double strand) [aimX-boxKat BLI probe (DNA_Kat_b)]” showed a Kd in [1] of 23.1 nM.

“GTTGATCACTTAAATATTAGGTTTTAATAACATCTAGTGATGGCC (double strand) [aimX-boxSPb BLI probe (DNA_SPb_b)]” registered a Kd in series [1] of 21.4 nM.

Take “AimR from Katmira phage (AimR^Kat) (receptor)”: the stoichiometry N in series [5] and in series [6] was 2 throughout.

B1: AimP^SPβ, the SPβ AimP peptide GMPRGA (peptide)
peptide: GMPRGA
In [7], B1 had a phage titre (PFU/ml) after mitomycin C induction of the SPβ ΔaimR prophage complemented with AimR^SPβ, 5 μM peptide added (times (reduction of the titre)) of 10. In [8], the KD1 (monomer 1, two-binding site model) is 1.3 µM and the KD2 (monomer 2, two-binding site model) is 1.6 µM.

B2: AimR^SPβ-I: AimR^SPβ receptor without tags (protein)
chain: T1 sequence
Regarding B2, the Kd is 19.3 nM in series [9] (BLITz, streptavidin biosensor with biotinylated DNA, PBS, 1:1 model, mean of five measurements, read-out: KD); 19 nM in [9] (peer review file, stated jointly for aimX-box^SPβ and aimX-box^Kat, read-out: affinity (KD)); 19.6 nM in [10] (BLITz, streptavidin biosensor with biotinylated DNA, PBS, mean of five measurements); greater than 1000 nM in [11] (BLITz, PBS, AimR 0.015-2.5 μM). Besides, the koff in [9] (PBS + 0.01% tween and 0.1% BSA, 1:1 model) was 0.0726 ± 0.00229 s⁻¹; in [10] (PBS + 0.01% tween and 0.1% BSA), 0.078 ± 0.0025 s⁻¹; in [11] (PBS + 0.01% tween and 0.1% BSA), “NBD^d”. For the same molecule, the kon in [9] (PBS, 1:1 model) is 3.75e+06 ± 324000 M⁻¹ s⁻¹; in [10] (PBS), 3.98e+06 ± 427000 M⁻¹ s⁻¹; in [11] (PBS), “NBD^d”. In addition, the Tm in series [12] (20 mM Tris pH 8, 250 mM NaCl, 20 μM protein, no peptide) is 53.6 °C; in [12] (Supplementary Fig. 5b, in °C (unit assumed)) it was 53.6 ± 0.7.

B3: aimX-boxPhi EMSA probe (DNA_Phi3T) (dsDNA)
DNA 1: GTTGATGTTCCAGAAATTCAAAAATCAAAAAATAAGAACATGGCC
DNA 2: GGCCATGTTCTTATTTTTTGATTTTTGAATTTCTGGAACATCAAC
As to B3, in series [13], the binding result was “no binding”.

B4: aimX-boxSPb BLI probe (DNA_SPb_b) (dsDNA)
DNA 1: GTTGATCACTTAAATATTAGGTTTTAATAACATCTAGTGATGGCC
DNA 2: GGCCATCACTAGATGTTATTAAAACCTAATATTTAAGTGATCAAC
Turning to B4, the Kd was 19.3 nM in series [14] and 116 nM in series [15].

B5: aimX-boxKat BLI probe (DNA_Kat_b) (dsDNA)
DNA 1: B4 DNA 1 with G20A, A26T
DNA 2: B4 DNA 2 with T20A, C26T
B5: the Kd in series [14] was determined as 19.6 nM; in [15], 116 nM.
